# Target: purified cyno C3 protein (CompTech, CY113) (cynomolgous monkey (Macaca fascicularis))
# Experiment: sandwich ELISA; known concentrations of purified cyno C3 read on the human C3 kit, relative to human C3
substance,measurement,value
"human C3 ELISA kit (Abcam, ab108823) (antibody)",cross-reactivity,30%

# — US20250108132A1
